Experiments:
[1] = molecular target: the molecule itself; test: SEC
[2] = molecular target: the molecule itself; test: AUC
[3] = molecular target: the molecule itself; test: NMR titration
[4] = molecular target: Ubiquitin (UniProt P0CG48 1-76); test: NMR titration

B1: UBQLN2 450–624 P506A (domain or fragment)
chain: RAMQALMQIQQGLQTLATEAPGLIPSFTPGVGVGVLGTAIGPVGPVTPIGPIGPIVAFTPIGPIGPIGPTGPAAPPGSTGSGGPTGPTVSSAAPSETTSPTSESGPNQQFIQQMVQALAGANAPQLPNPEVRFQQQLEQLNAMGFLNREANLQALIATGGDINAAIERLLGSQPSW
binding result [1]: binds

B2: UBQLN2 450–624 P506T (domain or fragment)
chain: RAMQALMQIQQGLQTLATEAPGLIPSFTPGVGVGVLGTAIGPVGPVTPIGPIGPIVTFTPIGPIGPIGPTGPAAPPGSTGSGGPTGPTVSSAAPSETTSPTSESGPNQQFIQQMVQALAGANAPQLPNPEVRFQQQLEQLNAMGFLNREANLQALIATGGDINAAIERLLGSQPSW
binding result [1]: binds

B3: UBQLN2 450–624 P506S (domain or fragment)
chain: RAMQALMQIQQGLQTLATEAPGLIPSFTPGVGVGVLGTAIGPVGPVTPIGPIGPIVSFTPIGPIGPIGPTGPAAPPGSTGSGGPTGPTVSSAAPSETTSPTSESGPNQQFIQQMVQALAGANAPQLPNPEVRFQQQLEQLNAMGFLNREANLQALIATGGDINAAIERLLGSQPSW
binding result [1]: binds

B4: UBQLN2 450–624 P497S (domain or fragment)
chain: RAMQALMQIQQGLQTLATEAPGLIPSFTPGVGVGVLGTAIGPVGPVTSIGPIGPIVPFTPIGPIGPIGPTGPAAPPGSTGSGGPTGPTVSSAAPSETTSPTSESGPNQQFIQQMVQALAGANAPQLPNPEVRFQQQLEQLNAMGFLNREANLQALIATGGDINAAIERLLGSQPSW
binding result [2]: binds

B5: UBQLN2 450–624 T487I (domain or fragment)
chain: RAMQALMQIQQGLQTLATEAPGLIPSFTPGVGVGVLGIAIGPVGPVTPIGPIGPIVPFTPIGPIGPIGPTGPAAPPGSTGSGGPTGPTVSSAAPSETTSPTSESGPNQQFIQQMVQALAGANAPQLPNPEVRFQQQLEQLNAMGFLNREANLQALIATGGDINAAIERLLGSQPSW
binding result [2]: binds

B6: UBQLN2 450–624 P497L (domain or fragment)
chain: RAMQALMQIQQGLQTLATEAPGLIPSFTPGVGVGVLGTAIGPVGPVTLIGPIGPIVPFTPIGPIGPIGPTGPAAPPGSTGSGGPTGPTVSSAAPSETTSPTSESGPNQQFIQQMVQALAGANAPQLPNPEVRFQQQLEQLNAMGFLNREANLQALIATGGDINAAIERLLGSQPSW
binding result [2]: binds

B7: UBQLN2 450–624 A488T (domain or fragment)
chain: RAMQALMQIQQGLQTLATEAPGLIPSFTPGVGVGVLGTTIGPVGPVTPIGPIGPIVPFTPIGPIGPIGPTGPAAPPGSTGSGGPTGPTVSSAAPSETTSPTSESGPNQQFIQQMVQALAGANAPQLPNPEVRFQQQLEQLNAMGFLNREANLQALIATGGDINAAIERLLGSQPSW
binding result [1]: binds

B8: UBQLN2 450–624 P500S (domain or fragment)
chain: RAMQALMQIQQGLQTLATEAPGLIPSFTPGVGVGVLGTAIGPVGPVTPIGSIGPIVPFTPIGPIGPIGPTGPAAPPGSTGSGGPTGPTVSSAAPSETTSPTSESGPNQQFIQQMVQALAGANAPQLPNPEVRFQQQLEQLNAMGFLNREANLQALIATGGDINAAIERLLGSQPSW
binding result [3]: binds

B9: UBQLN2 450–624 P509S (domain or fragment)
chain: RAMQALMQIQQGLQTLATEAPGLIPSFTPGVGVGVLGTAIGPVGPVTPIGPIGPIVPFTSIGPIGPIGPTGPAAPPGSTGSGGPTGPTVSSAAPSETTSPTSESGPNQQFIQQMVQALAGANAPQLPNPEVRFQQQLEQLNAMGFLNREANLQALIATGGDINAAIERLLGSQPSW
binding result [3]: binds

B10: UBQLN2 450–624 (domain or fragment)
chain: RAMQALMQIQQGLQTLATEAPGLIPSFTPGVGVGVLGTAIGPVGPVTPIGPIGPIVPFTPIGPIGPIGPTGPAAPPGSTGSGGPTGPTVSSAAPSETTSPTSESGPNQQFIQQMVQALAGANAPQLPNPEVRFQQQLEQLNAMGFLNREANLQALIATGGDINAAIERLLGSQPSW
binding result [4]: binds

B11: UBQLN2 450–624 P497H (domain or fragment)
chain: RAMQALMQIQQGLQTLATEAPGLIPSFTPGVGVGVLGTAIGPVGPVTHIGPIGPIVPFTPIGPIGPIGPTGPAAPPGSTGSGGPTGPTVSSAAPSETTSPTSESGPNQQFIQQMVQALAGANAPQLPNPEVRFQQQLEQLNAMGFLNREANLQALIATGGDINAAIERLLGSQPSW
binding result [1]: binds

Reference: PMC6551275 (Structure (London, England : 1993), 2019)
